Molecular target: HIV-1 Env, strain HXB2 (HIV-1) (UniProt P04578)

5-Helix (designed binder)
IC50 of neutralisation of HXB2 Env-pseudotyped lentivirus, HOS-CD4-CCR5 cells: 8.2 nM

— article PMC9974412
